The numbers were not newly measured in PMC10330345, which cites them from elsewhere.

This series has as its target BTN3A1 272-513 (Homo sapiens) (UniProt O00481). Briefly: ITC. Background: In ITC the heat of successive injections is recorded.

Sequence of BTN3A1 272-513 (Homo sapiens) (O00481 272-513): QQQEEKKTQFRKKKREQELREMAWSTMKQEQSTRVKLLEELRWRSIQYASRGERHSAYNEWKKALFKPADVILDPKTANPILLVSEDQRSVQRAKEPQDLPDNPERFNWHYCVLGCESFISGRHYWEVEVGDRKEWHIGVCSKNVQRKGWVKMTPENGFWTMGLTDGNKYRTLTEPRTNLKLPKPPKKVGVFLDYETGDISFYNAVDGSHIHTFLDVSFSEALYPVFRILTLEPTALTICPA

With BTN2A1 271-527 (from UniProt Q7KYR7), the Kd (in general, the free concentration of one partner at which half of the binding sites on the other are occupied at equilibrium, for simple one-to-one binding) was 0.89 µM.
